Test results: patent US20220033485A1 (TEIJIN PHARMA, published 2022)
Positions count from the first letter of the chain named. In names and notes the source's numbering stands.

B1: anti-IGF-I receptor humanized antibody R11-16B (antibody, human IgG4, V domains shown)
VH: QVQLVQPGAELVKPGASVKVSCKAPGYTFTSYWMHWVRQAPGQGLEWIGETNPSNSVTNYNEKFKSKATLTVDTSTSTVYMELSSLRSEDTAVYYCTIGRGRGFAYWGQGTLVTVSS
VL: DIQMTQSPSSLSASVGDRVTITCRASQNINFWLSWYQQKPGKAPKLLIYKASNLHTGVPSRFSGSGSGTDFTFTISSLQPEDIATYYCLQGQSYPYTFGQGTKLEIK
notes: Heavy chain constant region: human IgG4 S228P variant; Expressed in Expi293, protein A purified; also called R11-16B antibody; R11-16VH + R11-16VL-C36Y
B2: anti-IGF-I receptor humanized antibody R11-16D (antibody, human IgG4, V domains shown)
VH: B1 VH
VL: B1 VL with Y36S
notes: also called R11-16D antibody; R11-16VH + R11-16VL-C36S
B3: anti-IGF-I receptor humanized antibody R11-16E (antibody, human IgG4, V domains shown)
VH: B1 VH
VL: B1 VL with Y36F
notes: also called R11-16E antibody; R11-16VH + R11-16VL-C36F
B4: anti-IGF-I receptor humanized antibody R11-16F (antibody, human IgG4, V domains shown)
VH: B1 VH
VL: B1 VL with Y36C
notes: also called R11-16F antibody; R11-16VH + R11-16VL-C36
B5: anti-IGF-I receptor humanized antibody R11-16C (antibody, human IgG4, V domains shown)
VH: B1 VH
VL: B1 VL with Y36A
notes: also called R11-16C antibody; R11-16VH + R11-16VL-C36A

Molecular target: T1, Substitute 2 of CR domain (human IGF-I receptor G315S, S316T, C-terminal FLAG tag) (human, UniProt P08069 31-1367)
T1 construct: Expressed on 293T cells, formalin fixed; also called substitute 2 receptor
Test: cell-based ELISA on fixed 293T cells expressing the substitute receptor
Protocol: (§1) 293T cells were seeded in 10-cm dishes coated with poly-D-lysine in 6×10⁶ cells. On the next day, each plasmid DNA was introduced into the cells by lipofection. Two days later, the 293T cells were released with 0.05% trypsin/EDTA and suspended in the culture medium. The 293T cells were added to a 96-well plate (coated with poly-D-lysine) in 2×10⁴ cells/well and incubated overnight at 37° C. under 5% CO₂. The medium was removed from the 96-well plate. The plate was fixed with 10% buffered formalin (Mildform® 10NM, Wako), replaced by a blocking buffer (3% BSA/PBS/0.02% sodium azide), and used for the ELISA.
(§2) Each well was washed two times with a cleaning solution. A 2500-fold diluted solution of an anti-human IgG antibody ALP conjugate solution (2087-04, Southern Biotech) in the blocking buffer (50 μL) was added to each well and reacted for about one hour at room temperature. Each well was washed three times with a cleaning solution. A pNPP substrate (100 μL) was added to each well to initiate the reaction. The absorbances at 405 nm and 550 nm were measured after about one hour.

binding result	Binder
no binding (tested: 5 nM)	B1

Molecular target: T2, Substitute 1 of CR domain (human IGF-I receptor D245N, A247T, E294D, C-terminal FLAG tag) (human, UniProt P08069 31-1367)
T2 construct: Expressed on 293T cells, formalin fixed; also called substitute 1 receptor
Test: cell-based ELISA, 5 nM R11-16B on fixed 293T cells expressing the FLAG-tagged receptor; Mock cells gave 0.328
Protocol: as §1, §2

Avidity (absorbance, R11-16B added minus not added)	Binder
0.885 absorbance	B1

Molecular target: T3, wild-type human IGF-I receptor with C-terminal FLAG tag (human, UniProt P08069 31-1367)
T3 construct: Expressed on 293T cells, formalin fixed; also called positive control
Test: as above
Protocol: as §1, §2

Avidity (absorbance, R11-16B added minus not added)	Binder
0.835 absorbance	B1

Molecular target: T1, Substitute 2 of CR domain (human IGF-I …)
Test: as above
Protocol: as §1, §2

Avidity (absorbance, R11-16B added minus not added)	Binder
0.308 absorbance	B1

Molecular target: T4, human IGF-I receptor (human, UniProt P08069 31-1367)
T4 sequence (P08069 31-1367 limits assumed): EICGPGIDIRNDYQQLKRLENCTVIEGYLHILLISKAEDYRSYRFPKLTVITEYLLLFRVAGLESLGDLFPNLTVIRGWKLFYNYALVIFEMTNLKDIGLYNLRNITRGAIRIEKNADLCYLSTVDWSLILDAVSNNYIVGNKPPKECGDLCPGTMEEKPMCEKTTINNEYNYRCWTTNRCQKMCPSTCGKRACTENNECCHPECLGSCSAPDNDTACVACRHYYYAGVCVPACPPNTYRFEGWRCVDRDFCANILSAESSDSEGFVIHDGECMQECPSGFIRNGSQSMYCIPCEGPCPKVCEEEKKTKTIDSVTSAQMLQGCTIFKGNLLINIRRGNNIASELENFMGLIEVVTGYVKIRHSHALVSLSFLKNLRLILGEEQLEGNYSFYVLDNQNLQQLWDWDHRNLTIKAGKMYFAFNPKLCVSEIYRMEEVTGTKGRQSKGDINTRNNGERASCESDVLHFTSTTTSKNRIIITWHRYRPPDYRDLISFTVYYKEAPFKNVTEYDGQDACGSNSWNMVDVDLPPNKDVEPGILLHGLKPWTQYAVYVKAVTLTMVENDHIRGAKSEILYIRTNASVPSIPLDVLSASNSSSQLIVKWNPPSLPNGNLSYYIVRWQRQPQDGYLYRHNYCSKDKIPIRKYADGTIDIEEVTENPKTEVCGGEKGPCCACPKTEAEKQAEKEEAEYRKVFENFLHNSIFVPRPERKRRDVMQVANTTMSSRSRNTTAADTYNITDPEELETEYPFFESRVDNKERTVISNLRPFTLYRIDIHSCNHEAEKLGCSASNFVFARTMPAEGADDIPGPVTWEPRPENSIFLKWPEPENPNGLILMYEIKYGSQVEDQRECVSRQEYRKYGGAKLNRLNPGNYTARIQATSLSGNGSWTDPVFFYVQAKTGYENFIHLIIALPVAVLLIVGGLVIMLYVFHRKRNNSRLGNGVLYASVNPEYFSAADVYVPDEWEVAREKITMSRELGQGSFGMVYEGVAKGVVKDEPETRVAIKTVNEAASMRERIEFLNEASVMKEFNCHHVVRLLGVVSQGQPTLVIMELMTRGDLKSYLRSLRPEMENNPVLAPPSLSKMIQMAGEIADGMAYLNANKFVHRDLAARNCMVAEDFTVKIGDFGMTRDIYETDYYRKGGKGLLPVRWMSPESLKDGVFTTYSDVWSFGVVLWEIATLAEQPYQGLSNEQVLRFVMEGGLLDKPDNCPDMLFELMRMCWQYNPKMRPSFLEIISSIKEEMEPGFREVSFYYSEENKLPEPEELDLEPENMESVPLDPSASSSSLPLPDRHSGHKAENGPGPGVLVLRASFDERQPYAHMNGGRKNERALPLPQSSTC
Test: cell-based or functional assay

Proliferation activity on human myoblast cells (%), 0.005 nM, Experiment 1	Proliferation activity on human myoblast cells (%), 0.005 nM, Experiment 2	Proliferation activity on human myoblast cells (%), 0.5 nM, Experiment 1	Proliferation activity on human myoblast cells (%), 0.5 nM, Experiment 2	Binder
147%	148%	164%	164%	B1
144%	149%	160%	169%	B2
150%	143%	166%	164%	B3
146%	148%	161%	156%	B4
150%	143%	178%	172%	B5

Molecular target: T5, rat IGF-I receptor (rat, UniProt P24062 31-1370)
T5 construct: Whole entry as named; expressed on HEK293T cells; also called IGF-I receptor of rat; NP_434694
T5 sequence (P24062 31-1370 limits assumed): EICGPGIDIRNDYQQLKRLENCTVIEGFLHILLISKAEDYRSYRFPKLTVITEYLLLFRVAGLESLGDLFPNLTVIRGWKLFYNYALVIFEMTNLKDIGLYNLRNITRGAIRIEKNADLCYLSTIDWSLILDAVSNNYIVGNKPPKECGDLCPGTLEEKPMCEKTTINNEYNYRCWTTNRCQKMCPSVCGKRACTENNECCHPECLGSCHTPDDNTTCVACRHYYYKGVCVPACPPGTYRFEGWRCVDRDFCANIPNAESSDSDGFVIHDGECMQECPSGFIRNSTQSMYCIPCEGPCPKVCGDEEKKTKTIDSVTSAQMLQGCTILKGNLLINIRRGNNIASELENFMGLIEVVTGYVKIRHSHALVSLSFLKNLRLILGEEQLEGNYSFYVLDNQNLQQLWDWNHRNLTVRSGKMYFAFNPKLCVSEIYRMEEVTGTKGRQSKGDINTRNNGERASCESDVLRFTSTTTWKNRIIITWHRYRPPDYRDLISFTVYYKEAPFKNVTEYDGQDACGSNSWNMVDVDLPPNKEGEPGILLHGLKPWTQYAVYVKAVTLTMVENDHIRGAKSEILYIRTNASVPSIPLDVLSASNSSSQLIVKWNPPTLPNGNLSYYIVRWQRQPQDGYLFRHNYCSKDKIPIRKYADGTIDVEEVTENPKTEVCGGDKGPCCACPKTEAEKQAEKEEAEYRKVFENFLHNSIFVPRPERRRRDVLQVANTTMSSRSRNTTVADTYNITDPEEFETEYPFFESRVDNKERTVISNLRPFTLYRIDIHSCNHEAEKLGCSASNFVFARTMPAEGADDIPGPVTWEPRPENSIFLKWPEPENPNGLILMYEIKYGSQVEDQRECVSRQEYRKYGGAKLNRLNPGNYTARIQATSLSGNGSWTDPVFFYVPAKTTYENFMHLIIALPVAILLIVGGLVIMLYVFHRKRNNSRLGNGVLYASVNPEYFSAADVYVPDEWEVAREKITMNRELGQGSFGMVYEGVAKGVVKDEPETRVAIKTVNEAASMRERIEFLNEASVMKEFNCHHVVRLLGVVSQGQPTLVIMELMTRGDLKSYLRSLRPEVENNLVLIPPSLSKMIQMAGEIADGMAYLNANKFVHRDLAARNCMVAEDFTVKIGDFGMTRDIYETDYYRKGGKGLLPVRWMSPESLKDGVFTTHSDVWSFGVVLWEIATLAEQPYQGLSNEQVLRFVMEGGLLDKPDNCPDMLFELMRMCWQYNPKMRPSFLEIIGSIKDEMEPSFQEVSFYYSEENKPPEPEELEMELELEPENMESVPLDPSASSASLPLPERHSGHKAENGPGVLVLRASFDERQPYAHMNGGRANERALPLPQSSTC
Test: cell-based ELISA on HEK293T cells expressing the receptor
Protocol: (§3) The HEK293T cells cultured for at least one night after the lipofection were added to a 96-well plate (coated with poly-D-lysine) in 4×10⁴ cells/well, and the plate further cultured for at least one night were used in the ELISA.
(§4) In the ELISA, 2 nM humanized antibody solutions in 1% BSA/1% FBS/PBS (100 μL) were added to respective wells and reacted for about one hour at 37° C. The wells were washed three times with a cleaning solution. An HRP conjugate solutions (100 μL) of an anti-human IgG antibody prepared at various concentrations with 1% BSA/1% FBS/PBS was added to the respective wells and reacted for about one hour at 37° C. Each well was washed three times with a cleaning solution. A TMB substrate (100 μL) was added to each well to initiate the reaction. Approximately 30 minutes later, 1M sulfuric acid (100 μL) was added to each well to measure the absorbances at 450 nm and 650 nm and calculate the difference of the values between 450 nm and 650 nm.

binding result	Binder
no binding (tested: 2 nM)	B1
no binding (tested: 2 nM)	B2
no binding (tested: 2 nM)	B3
no binding (tested: 2 nM)	B4
no binding (tested: 2 nM)	B5

Molecular target: T4, human IGF-I receptor
Test: cell-based or functional assay
Remark: another data set of the same source

EC50 of proliferation activity on human myoblast cells	Binder
2 pM	B1
2 pM	B2
2 pM	B3
2 pM	B4
2 pM	B5

Molecular target: T5, rat IGF-I receptor
Test: cell-based ELISA, 2 nM antibody on HEK293T cells expressing the receptor, A450-A650
Protocol: as §3, §4

Avidity (relative to control HEK293T cells = 1)	Binder
0.8 fold of control cells	B1
0.9 fold of control cells	B2
0.8 fold of control cells	B3
0.9 fold of control cells	B4
0.9 fold of control cells	B5

Molecular target: T6, cynomolgus monkey IGF-I receptor (cynomolgus monkey, UniProt P08069 31-1367 (human entry))
T6 construct: Whole entry as named; expressed on HEK293T cells; also called IGF-I receptor of cynomolgus monkey; XP_005560575
T6 sequence (P08069 other isoform, or with tags, fused parts or gaps limits assumed): as the sequence (P08069 31-1367 limits assumed) above, with T188A, S471W, A729V, P738L, E1238D counted along it
Test: as above
Protocol: as §3, §4

Avidity (relative to control HEK293T cells = 1)	Binder
3.3 fold of control cells	B1
3.4 fold of control cells	B2
3.7 fold of control cells	B3
3.3 fold of control cells	B4
3.3 fold of control cells	B5

Molecular target: T7, guinea pig IGF-I receptor (guinea pig, UniProt P08069 31-1367 (human entry))
T7 construct: Whole entry as named; expressed on HEK293T cells; also called IGF-I receptor of guinea pig; XP_003475316
T7 sequence (P08069 other isoform, or with tags, fused parts or gaps limits assumed): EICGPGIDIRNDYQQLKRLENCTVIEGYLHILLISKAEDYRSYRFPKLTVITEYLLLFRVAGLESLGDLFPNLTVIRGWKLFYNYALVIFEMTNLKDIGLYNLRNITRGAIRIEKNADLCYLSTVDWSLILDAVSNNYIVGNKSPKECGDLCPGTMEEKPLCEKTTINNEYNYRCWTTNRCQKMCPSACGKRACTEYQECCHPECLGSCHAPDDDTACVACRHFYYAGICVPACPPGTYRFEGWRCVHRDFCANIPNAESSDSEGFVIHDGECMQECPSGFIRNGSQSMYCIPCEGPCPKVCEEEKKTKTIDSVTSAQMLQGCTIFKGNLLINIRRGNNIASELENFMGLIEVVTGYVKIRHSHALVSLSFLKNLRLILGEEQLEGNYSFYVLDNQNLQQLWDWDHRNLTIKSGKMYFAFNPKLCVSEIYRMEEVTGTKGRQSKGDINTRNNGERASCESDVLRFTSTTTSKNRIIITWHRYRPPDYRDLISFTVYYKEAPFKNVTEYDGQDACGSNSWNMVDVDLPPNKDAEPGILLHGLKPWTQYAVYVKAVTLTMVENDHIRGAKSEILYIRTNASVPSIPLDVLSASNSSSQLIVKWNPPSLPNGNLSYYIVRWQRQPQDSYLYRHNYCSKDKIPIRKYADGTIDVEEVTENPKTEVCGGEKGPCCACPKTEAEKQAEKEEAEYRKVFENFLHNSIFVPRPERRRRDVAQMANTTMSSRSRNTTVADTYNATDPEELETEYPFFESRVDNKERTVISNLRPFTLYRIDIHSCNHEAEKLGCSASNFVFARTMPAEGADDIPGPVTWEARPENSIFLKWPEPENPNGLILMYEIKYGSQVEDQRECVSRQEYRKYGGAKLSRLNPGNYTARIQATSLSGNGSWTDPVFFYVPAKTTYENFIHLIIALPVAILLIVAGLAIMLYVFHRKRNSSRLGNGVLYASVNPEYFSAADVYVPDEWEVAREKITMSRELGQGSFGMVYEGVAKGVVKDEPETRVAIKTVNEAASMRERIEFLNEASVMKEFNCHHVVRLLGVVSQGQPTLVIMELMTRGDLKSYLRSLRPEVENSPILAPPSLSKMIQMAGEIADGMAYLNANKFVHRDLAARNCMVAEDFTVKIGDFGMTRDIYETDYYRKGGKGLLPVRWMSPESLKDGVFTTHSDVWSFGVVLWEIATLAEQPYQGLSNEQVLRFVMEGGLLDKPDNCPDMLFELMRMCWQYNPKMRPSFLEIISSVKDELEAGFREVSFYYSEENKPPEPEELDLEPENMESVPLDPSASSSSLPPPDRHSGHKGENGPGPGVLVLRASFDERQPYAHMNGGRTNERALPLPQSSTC
Test: as above
Protocol: as §3, §4

Avidity (relative to control HEK293T cells = 1)	Binder
3.3 fold of control cells	B1
3.3 fold of control cells	B2
3.4 fold of control cells	B3
3.3 fold of control cells	B4
3.3 fold of control cells	B5

Molecular target: T4, human IGF-I receptor
Test: as above
Protocol: as §3, §4

Avidity (relative to control HEK293T cells = 1)	Binder
3.4 fold of control cells	B1
3.4 fold of control cells	B2
3.7 fold of control cells	B3
3.4 fold of control cells	B4
3.4 fold of control cells	B5
